Experiments:
[1] = molecular target: linker domain of human IGFBP2 (L-hIGFBP2; residues A97-C191) (human); assay: NMR titration
[2] = molecular target: insulin-like growth factor 2 (IGF-2) (human) (UniProt P01344); assay: SPR
[3] = molecular target: insulin-like growth factor 1 (IGF-1) (human) (UniProt P05019); assay: SPR

UniProt P01344, sequence (P01344 25-91): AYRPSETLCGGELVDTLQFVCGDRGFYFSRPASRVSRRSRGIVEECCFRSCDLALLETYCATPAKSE

| Substance | stoichiometry N [1] | Kd [2] [µM] | Kd [3] [µM] |
| --- | --- | --- | --- |
| insulin-like growth factor 1 (IGF-1) (from UniProt P05019 49-118) (ligand) | 1 |  |  |
| linker domain of human IGFBP2 (L-hIGFBP2; residues A97-C191) (domain or fragment) |  | 3.7 | 4.1 |

Source: PMC9357107
